This is an account of results in US20110129473A1 (LABORATORIOS SILANES S A DE C V, published 2011).

The target in the test is T1, recombinant human cytokine TNFα (human, UniProt P01375 77-233).
T1 construct: Recombinant human TNFα used for immunisation, panning and ELISA; also called human TNFα; rhTNF-α
The test can be described thus: phage display selection and ELISA on coated TNFα. How it is done:
Phage selection rounds, amplification and recovery: There were performed 4 rounds of phage selection with TNFα 1 μg in PBS in an ELISA plate, sealed and incubating over night at 4° C., the cytokine is eliminated and blocking with 150 μl of PBS-BSA (3%), sealed and incubated 1 hr at 37° C.; discarding and adding 50 μl of phage-antibodies for each well, sealed and incubated with TBS-Tween 20 (0.05%) 150 for each well using the pipette to agitate. The solution is discarded and the phage-antibodies specific for TNFα are harvested after adding 50 μl per well of TBS-Trypsin [10 mg/ml]. The plate is sealed and incubated during 30 minutes, 37° C. The phage-antibodies are recovered and used to infect a culture of E. coli ER2537 (2 ml) electro-compentents (DO₆₀₀=1), during 15 minutes at room temperature. The selected phage-antibodies are amplified using serial dilutions incubating the transformants in SB media with carbencillin and helper phage VCSM13 with kanamycin. The phage-antibodies were recovered from the infected cultures of ER2537 cells by centrifugations using first PEG-8000 4% and NaCl 3, and PBS_BSA 1% (2 ml) filtering the supernatant with a 0.22 μm membrane, using 50 μl para to be selected according to the TNFα binding. […]
On the technique in general: In an ELISA, binding on a coated surface is turned into a signal by an enzyme label.

T1 sequence (P01375 77-233 limits assumed): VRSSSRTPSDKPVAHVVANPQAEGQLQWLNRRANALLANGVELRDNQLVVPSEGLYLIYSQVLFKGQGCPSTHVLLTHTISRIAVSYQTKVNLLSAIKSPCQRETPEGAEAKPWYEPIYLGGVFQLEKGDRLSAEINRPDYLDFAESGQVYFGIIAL

B1: vNAR clone 65 (anti-TNFα vNAR from Heterodontus francisci) (other)
chain: ASLDQTPRTATRETGESLTVNCVLVDANYGLYNTSWYRNNPGSTDREHITIGGRYVESVNKGAKSFSLQIKDMTVEDSGTYYCKARESDYNRVGIRDYKDYDGAGTVLTVN
notes: Shark IgNAR single variable domain (vNAR), expressed from pCOMb3X in E. coli; also called TNF65
As for B1, the binding result was “binds”.
